Experimental data: PMC12375888 (Febs Letters, 2025)

Tests used:
[1] = target: T1, Mycobacterium tuberculosis thiosulfate sulfurtransferase SseA (Mycobacterium tuberculosis, UniProt P9WHF7 1-297, RED-NHS dye on primary amines (lysine residues), degree of labeling ~0.5, in the MST experiment only); assay: cell-based or functional assay
T1 sequence: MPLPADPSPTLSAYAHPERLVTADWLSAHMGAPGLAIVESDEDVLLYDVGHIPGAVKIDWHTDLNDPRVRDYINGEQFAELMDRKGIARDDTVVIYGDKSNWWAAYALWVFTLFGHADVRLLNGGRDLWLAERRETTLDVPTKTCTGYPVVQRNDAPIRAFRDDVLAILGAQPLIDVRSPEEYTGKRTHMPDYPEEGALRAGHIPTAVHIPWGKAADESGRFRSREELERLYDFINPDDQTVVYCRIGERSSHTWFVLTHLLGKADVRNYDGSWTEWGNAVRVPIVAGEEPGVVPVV

[2] = target: T1, Mycobacterium tuberculosis thiosulfate …; assay: ITC; 10 uM SseA in the cell titrated with 100 uM SufE; PBS pH 8.0 (phosphate 20 mM, NaCl 150 mM, DTT 2 mM), 25 °C; single binding site model; details: both partners purified
[3] = target: T1, Mycobacterium tuberculosis thiosulfate …; assay: MST; 10 nM SseA labelled with RED-NHS dye, label-free SufE Mtb titrated from 1.5 nM to 50 uM; 25 °C, 50 mM sodium phosphate pH 7.8, 0.05% Tween-20; Monolith NT.115; details: both partners purified

B1: Mycobacterium tuberculosis SufE-like protein Rv3284 (SufE Mtb) (natural protein)
chain: MTAPASLPAPLAEVVSDFAEVQGQDKLRLLLEFANELPALPSHLAESAMEPVPECQSPLFLHVDASDPNRVRLHFSAPAEAPTTRGFASILAAGLDEQPAADILAVPEDFYTELGLAALISPLRLRGMSAMLARIKRRLREAD
notes: Tag-free after TEV cleavage; also called SseE; not shown: His6, N-terminal, cleaved; GST, N-terminal, cleaved
[1]
  thiosulfate:cyanide sulfurtransferase activity of 10 uM SseA with increasing SufE Mtb (10-100 uM): 4 fold
[2]
  Kd: 3.3 ± 0.6 µM
  dH: -11.6 kcal/mol
  stoichiometry N: 1
[3]
  Kd: 3 ± 0.7 µM
